PMC10720262 (2023)

These binders were tested against PfCSP full length (Plasmodium falciparum (isolate NF54), UniProt P19597) (assay: ELISA AUC).
Chain of PfCSP full length (P19597 20-375): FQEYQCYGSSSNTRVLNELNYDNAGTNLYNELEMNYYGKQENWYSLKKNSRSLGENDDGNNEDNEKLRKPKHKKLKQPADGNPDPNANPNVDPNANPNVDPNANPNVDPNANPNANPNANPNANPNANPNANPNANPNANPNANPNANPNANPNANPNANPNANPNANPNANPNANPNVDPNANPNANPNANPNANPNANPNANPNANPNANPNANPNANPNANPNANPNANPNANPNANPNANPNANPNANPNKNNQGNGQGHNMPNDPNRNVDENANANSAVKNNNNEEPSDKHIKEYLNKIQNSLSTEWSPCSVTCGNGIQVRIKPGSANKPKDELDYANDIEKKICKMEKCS

| Binder | binding score |
| --- | --- |
| CL-447376 (antibody, V domains shown, peptides N-terminally acetylated and C-terminally amidated) VH: QVQLVESGGGVVQPGRSLRLSCAASGFNFNNYGMHWVRQAPVMGLEWVAIIWYDGSNKFYADSVKGRFTISRDNSQNTLFLQMNSLRAEDTGIYYCARSGGEMGNFDYWGQGTLVTVSS VL: DIVMTQSPLSLPVTLGQPASISCRSSQSLVYSNGDTYLDWFQLRPGQSPRRLIYKVSHRDSGVPDRFSGSGSGTEFTLRISRVEAEDVGIYYCMQGTHYWTFGQGTEVEIK | 2.5 |
| CL-462911 (antibody, V domains shown, peptides N-terminally acetylated and C-terminally amidated) VH: QVHLVESGGGVVQPGRSLTLSCAASGFTFSSCGMHWVRQAPGKGLEWLAVIWYDGSNKYYADSVKGRFTISRDNSKNTLYLQMNSLRAEDTAVYYCARDGGYVRDYYYGMDVWGQGTTVTVSS VL: not shown | 1.4 |
| CL-447737 (antibody, V domains shown, peptides N-terminally acetylated and C-terminally amidated) VH: QVQLVESGGGVVQPGRSLRLSCAASGFTFSSYGMHWVRQAPGKGLEWVAIIWFDGSNIFYEDSVKGRFTISRDNSKNTLYLQMNSLRAEDTAVYYCAKVWNYDSDYYSMDVWGQGTTVTVSS VL: not shown | 2.4 |
| CL-441734 (antibody, V domains shown, peptides N-terminally acetylated and C-terminally amidated) VH: QVQLVESGGGVVQPGRSLRLSCAASGFTFSSHGMHWVRQAPVKGLEWVAVIWYDGSNKYYADSVKGRFTISRDNSKNTLYLQMNSLRAEDTAVYYCARVEYSRSSGDYYYYGLDVWGQGTTVTVSS VL: EIVMTQSPATLSVSPGERATLSCRASQSVSSNLAWYQQKPGQAPRLLIYGASTRATGIPARFSGSGSGTEFTLTISSLQSEDFAVYYCQQYDNWWTFGQGTKVEIK | 2.3 |
| CL-511073 (antibody, V domains shown, peptides N-terminally acetylated and C-terminally amidated) VH: QVQLVESGGGVVQPGRSLRLSCAASGFSFSSHGMHWVRQAPGKGLEWVSIIWYDGSNKFYADSVKGRFTISRDNSKNTLYLQMNSLRAEDTAVYYCARDGYDVLTGHYNWFDPWGQGTLVTVSS VL: EIVMTQSPATLSVSPGERATLSCRASQSVSSKLAWYQQKPGQAPRLLIYGASTRATGIPARFSGSGSGTDFTLTISSLQSEDFAVYYCQQYNNWWTFGHGTKVEIK | 2.15 |
| CL-509177 (antibody, V domains shown, peptides N-terminally acetylated and C-terminally amidated) VH: QVQLVESGGGVVQPGRSLRLSCAASGFSFSSYGMHWVRQTPGKGLEWVAIIWYDGSNKFYADSVKGRFIISRDNSKNTLYLQMNSLRAEDTAVYYCARDGGYSTSAGDFDYWGQGTLVTVSS VL: EIVLTQSPGTLSLSPGERATLSCRASQSVSSSYLAWYQQKPGQAPRLLIYGASSRATGIPDRFSGRGSGTDFTLTISRLEPEDFAVYYCQQYVSSFTFGPGTKVDIN | 1.17 |
| CL-510632 (antibody, V domains shown, peptides N-terminally acetylated and C-terminally amidated) VH: QVQLVESGGGVVQPGRSLRLSCAASGFTFSNYGMHWVRQAPGKGLEWVAVIWYDGSNKFYADSVKGRFTISRDNSKNTLYLQTNSLRAEDTAVYYCARVYYYDSGNYLDYWGQGTLVAVSS VL: DIQMTQSPSSVSASVGDRVTITCRASQGINNCLAWYQQKPGKAPKLLIYAASSLQSGVPSRFSGSGSGTDFTLTISNLQPEDFATYCCQQANSFPWTFGQGTKVEIK | 1.9 |
| CL-509025 (antibody, V domains shown, peptides N-terminally acetylated and C-terminally amidated) VH: QVQLVESGGGVVQPGRSLRLSCVASGFTFSDYGMHWVRQAPGKGLEWVAVIWYDGTKEFFADSVKGRFTISRDNSKDTLYLQMNSLRAEDTGIYYCATYKWNSHLDYWGQGTLVTVSS VL: EIVLTQSPATLSLSPGERATLSCRASQTISSYLAWYQQKPGQAPRLLIYDASNRATGIPARFSGSGSGTDFTLTISSLEPEDFTVYYCQQRSNWPLTFGGGTKVGIK | 1.64 |
| CL-437934 (antibody, V domains shown, peptides N-terminally acetylated and C-terminally amidated) VH: QVQLVASGGAVVQPGRSLRLSCAASGFTFSNSGMHWVRQAPGQGLEWVAIIWYDGGNKYYADSVKGRFTISRDNSKNTLYLQMNSLRAEDTAVYYCVRAYYEILTTYNKDCCYGMDVWGQGTTVTVSS VL: not shown | 2.4 |
| CL-437762 (antibody, V domains shown, peptides N-terminally acetylated and C-terminally amidated) VH: QVQLVESGGGVVQPGRSLRLSCAASGFTFSNYGMYWVRQAPGKGLEWVAVIWYDGSNKYYADSVKGRFTISRDNSKNTLYLQMNSLRAEDTAFYYCARPQYSGSGSYFDYWGQGTLVTVSS VL: not shown | 2.5 |
| CL-510453 (antibody, V domains shown, peptides N-terminally acetylated and C-terminally amidated) VH: QVQLVESGGGVVQPGRSLRLSCAASGFTFSSYGMHWVRQAPDKGLEWVAIIWYDGSKKYYADSVKGRFTVSRDNSKNTLYLQMNSLRAEDTAVFYCARSFDYESGGFYSFDYWGQGTLVSVSS VL: DIQMTQSPSTLSASVGDRVTITCRASQSISSWLAWYQQKPGKAPKLLIYRASSLASGVPSRFSGSGSGTEFTLTISSLQPDDFATYYCQQYNSYWTFGQGTKVEFK | 2.07 |
| CL-510092 (antibody, V domains shown, peptides N-terminally acetylated and C-terminally amidated) VH: QVQLVESGGGVVQPGTSLRLSCAASGFTFSNFGMYWVRQAPGKGLEWVALIWYDGSNKFYEDSVKGRFTISRDNSKNTLYLQMNSLRAEDTAVYYCAKDGGYSGPGKYGFFRHWGQGSLVTVSS VL: DIQLTQSPSTLSASVGDRVTITCRASQSISNWLAWYQQKPGKAPKLLIYKASSLESGVPSRFSGNGSGTEFTLTISSLQPDDFATYYCHQYNFYWTFGQGTKVEIK | 2.38 |
| CL-513279 (antibody, V domains shown, peptides N-terminally acetylated and C-terminally amidated) VH: QVQLVESGGGVVQPGRSLRLSCAASGFTFSNFGMHWVRQAPVKGLEWVALIWYDGSNKFYADSVQGRFTISRDNSKNILYLQMNSLRAEDTAVYYCAKVEARGVDYHSYGMDVWGQGTTVTVSS VL: DIQMTQSPSTLSASVGDRVTITCRASQSISSWLAWYQQKPGKAPQLLIYKASSLESGVPSRFSGSGSGTEFTLTISSLQPDDFATYYCQQYKYYWTFGQGTKVEIK | 2.06 |
| CL-510700 (antibody, V domains shown, peptides N-terminally acetylated and C-terminally amidated) VH: QVQLVESGGGVVQPGRSLRLSCAASGFTFSDFGMHWVRQTPGKGLEWVAIIWYDGSNKFYADSVKGRFTISRDNSKNTLFLQMNSLRAEDTAVYYCARSGVYYGSGSHFDYWGQGTLVTVSS VL: DIQMTQSPSTLSASVGDRVTITCRASQSISSWLAWYQLKPGKAPKLLIYKASNLETGVPLRFSGSGSGTEFTLTISSLQPDDFATYYCQQYNSYLTFGQGTKVEIK | 1.9 |
| CL-509494 (antibody, V domains shown, peptides N-terminally acetylated and C-terminally amidated) VH: QVQLVESGGGVVQPGRSLRLSCAASGFTFSNFGMHWVRQSPGRGLEWVAIIWYDGSHKFYADSVKGRFTISRDNSKNTLYLQMNSLRAEDTAVYYCAKSEQRTNDHYYKYGMDVWGQGTTVTVST VL: DIQMTQSPSTLSASVGDRVTITCRASQSISSWLAWYQQKPGKAPTLLIYKASSLESGVPSRFSGSGSGTEFTLTISSLQPDDFATYYCQQYTNYWTFGQGTKVEIK | 1.93 |
| CL-531383 (antibody, V domains shown, peptides N-terminally acetylated and C-terminally amidated) VH: QVQLVESGGGVVQPGRSLRLSCAASGFTFSSFGMHWVRQTPVKGLEWVALIWYDGSHKFYADSVRGRFIISRDNSKNTLFLQMNSLRAEDTAIYYCAKVINYGSGNYYNNYKYTMDVWGQGTTVTVSS VL: DIQMTQSPSTLSASVGDRVTITCRASQSISSWLAWYQQKPGKAPKVLIYKASSLESGVPSRFSGSGSGTEFTLTISSLQPDDFATYYCQQYNTYWTFGQGTKVEIK | 2.64 |
| CL-449724 (antibody, V domains shown, peptides N-terminally acetylated and C-terminally amidated) VH: QVHLVASGGGVVQPGRSLRLSCEVTGFTFSSYGMHWVRQDPGRGLEWVAIIWYDGSNKFYADSVKGRFTISRDNSKNTLYLQMNSLRAEDTAVYYCARSYGILTGYQTKYGMDVWGQGTTVTVSS VL: not shown | 2.5 |
